# Experimental data: patent publication US20210206865A1 (Regeneron, published 2021)
# T1: human BCMA on the surface of cell lines (NCI-H929, MM.1S, OPM-2, RPMI-8226, Daudi, Raji, MOLP-8, U266) (human, UniProt Q02223 1-184)
# T1 sequence: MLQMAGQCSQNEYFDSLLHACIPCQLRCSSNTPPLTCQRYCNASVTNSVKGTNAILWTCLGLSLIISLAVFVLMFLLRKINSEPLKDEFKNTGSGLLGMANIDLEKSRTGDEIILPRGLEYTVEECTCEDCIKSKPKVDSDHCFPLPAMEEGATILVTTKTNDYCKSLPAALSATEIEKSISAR
# T2: human BCMA-MMH (extracellular domain of human BCMA with C-terminal myc-myc-hexahistidine tag) (human)
# T2 construct: Monomeric antigen; also called hBCMA.mmh; hBCMA.mmH
# T2 chain: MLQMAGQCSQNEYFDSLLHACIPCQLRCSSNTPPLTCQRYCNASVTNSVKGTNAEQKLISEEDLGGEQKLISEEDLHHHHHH
# T3: mouse BCMA-MFC (BCMA with C-terminal mFc tag) (mouse)
# T3 construct: Tested at a single concentration of 30 nM; also called mBCMA.mFc
# T3 chain: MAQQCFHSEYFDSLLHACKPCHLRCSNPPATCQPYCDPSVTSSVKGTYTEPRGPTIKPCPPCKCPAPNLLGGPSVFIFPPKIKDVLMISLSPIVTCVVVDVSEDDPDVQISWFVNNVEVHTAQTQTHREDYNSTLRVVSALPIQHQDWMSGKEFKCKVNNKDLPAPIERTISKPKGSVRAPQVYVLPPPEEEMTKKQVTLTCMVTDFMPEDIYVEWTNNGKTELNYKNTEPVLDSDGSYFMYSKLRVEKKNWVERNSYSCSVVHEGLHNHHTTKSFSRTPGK
# What was measured:
# [1] = target: T1, human BCMA on the surface of cell lines …; test: cell-based or functional assay
# [2] = target: T2, human BCMA-MMH (extracellular domain of …); test: SPR Biacore, 25 C, mAb captured via anti-hFc
# Method: (§1) The CM5 Biacore sensor surface was derivatized by amine coupling with a monoclonal mouse anti-human Fc antibody (GE, #BR-1008-39) to capture purified anti-BCMA mAbs and anti-BCMA×anti-CD3 bispecific mAbs. All Biacore binding studies were performed in a buffer composed of 0.01M HEPES pH 7.4, 0.15M NaCl, 3 mM EDTA, 0.05% v/v Surfactant P20 (HBS-ET running buffer). […] Antigen samples were then injected over the anti-BCMA and anti-BCMA×anti-CD3 bispecific mAbs captured surfaces at a flow rate of 30 μL/minute. Antibody-reagent association was monitored for 5 minutes while dissociation in HBS-ET running buffer was monitored for 10 minutes. All of the binding kinetics experiments were performed at 25° C. Kinetic association (kₐ) and dissociation (kd) rate constants were determined by fitting the real-time sensorgrams to a 1:1 binding model using Scrubber 2.0c curve fitting software. Binding dissociation equilibrium constants (KD) and dissociative half-lives (t1/2) were calculated from the kinetic rate constants as: […]
# [3] = target: T4, monkey BCMA-MMH (monkey BCMA with C-terminal myc-myc-hexahistidine tag) (monkey); test: SPR Biacore, 25 C, mAb captured via anti-hFc
# T4 construct: Monomeric antigen; also called mfBCMA.mmh
# Method: as §1
# [4] = target: T3, mouse BCMA-MFC (BCMA with C-terminal …); test: SPR Biacore, 25 C, mAb captured via anti-hFc
# Method: as §1
# [5] = target: T1, human BCMA on the surface of cell lines …; test: flow cytometry, Alexa647 conjugate on Raji cells
# Method: (§2) Cells were then washed and fixed for 25 mins at 4° C. using a 50% solution of BD Cytofix (BD, Cat #554655) diluted in PBS. […] After gating for live cells and single cells, the mean fluorescent intensity (MFI) was determined, and MFI values were plotted in Graphpad Prism using a four-parameter logistic equation over a 10-point response curve to calculate EC₅₀s. The zero condition for each dose-response curve is also included in the analysis as a continuation of the two-fold serial dilution and is represented as the lowest dose.
# [6] = target: T1, human BCMA on the surface of cell lines …; test: flow cytometry, Alexa647 conjugate on MM.1S cells
# Method: as §2
# [7] = target: T1, human BCMA on the surface of cell lines …; test: flow cytometry, Alexa647 conjugate on OPM-2 cells
# Method: as §2
# [8] = target: T1, human BCMA on the surface of cell lines …; test: flow cytometry, Alexa647 conjugate on NCI-H929 cells
# Method: as §2
# [9] = target: T1, human BCMA on the surface of cell lines …; test: flow cytometry, Alexa647 conjugate on RPMI-8226 cells
# Method: as §2
Binder,"EC50, Jurkat/NFATLuc reporter activation with Daudi cells [1]","EC50, Jurkat/NFATLuc reporter activation with MM1-S cells [1]","EC50, Jurkat/NFATLuc reporter activation with NCI-H929 cells [1]","EC50, Jurkat/NFATLuc reporter activation with OPM-2 cells [1]",90 nM hBCMA.mmh Bind (RU) [2],Kd [2],t1/2 [2],90 nM mfBCMA.mmh Bind (RU) [3],Kd [3],t1/2 [3],30 nM mBCMA.mFc Bind (RU) [4],binding result [4],also measured
"bsAb25441D bispecific antibody (REGN5458), anti-BCMA x anti-CD3 (bispecific antibody, human IgG4 S228P, kappa, Anti-BCMA arm from mAb21581, anti-CD3 arm and common light chain from mAb7221G; also called bsAb25441D9; mAb25441D) heavy 1: EVQLVESGGGLVQPGGSLRLSCAASGFTFSNFWMTWVRQAPGKGLEWVANMNQDGSEKYYVDSVKGRFTISRDNAKSSLYLQMNSLRAEDTAVYYCARDREYCISTSCYDDFDYWGQGTLVTVSSASTKGPSVFPLAPCSRSTSESTAALGCLVKDYFPEPVTVSWNSGALTSGVHTFPAVLQSSGLYSLSSVVTVPSSSLGTKTYTCNVDHKPSNTKVDKRVESKYGPPCPPCPAPPVAGPSVFLFPPKPKDTLMISRTPEVTCVVVDVSQEDPEVQFNWYVDGVEVHNAKTKPREEQFNSTYRVVSVLTVLHQDWLNGKEYKCKVSNKGLPSSIEKTISKAKGQPREPQVYTLPPSQEEMTKNQVSLTCLVKGFYPSDIAVEWESNGQPENNYKTTPPVLDSDGSFFLYSRLTVDKSRWQEGNVFSCSVMHEALHNHYTQKSLSLSLGK heavy 2: EVQLVESGGGLVQPGRSLRLSCAASGFTFDDYSMHWVRQAPGKGLEWVSGISWNSGSKGYADSVKGRFTISRDNAKNSLYLQMNSLRAEDTALYYCAKYGSGYGKFYHYGLDVWGQGTTVTVSSASTKGPSVFPLAPCSRSTSESTAALGCLVKDYFPEPVTVSWNSGALTSGVHTFPAVLQSSGLYSLSSVVTVPSSSLGTKTYTCNVDHKPSNTKVDKRVESKYGPPCPPCPAPPVAGPSVFLFPPKPKDTLMISRTPEVTCVVVDVSQEDPEVQFNWYVDGVEVHNAKTKPREEQFNSTYRVVSVLTVLHQDWLNGKEYKCKVSNKGLPSSIEKTISKAKGQPREPQVYTLPPSQEEMTKNQVSLTCLVKGFYPSDIAVEWESNGQPENNYKTTPPVLDSDGSFFLYSRLTVDKSRWQEGNVFSCSVMHEALHNRFTQKSLSLSPGK light: not shown",2.1 nM,1.2 nM,0.68 nM,0.66 nM,19.9 RU,1.06 nM,13.2 min,14.8 RU,49.9 nM,1.3 min,2.7 RU,no binding (tested: 30 nM),–
"bsAb25442D bispecific antibody (REGN5459), anti-BCMA x anti-CD3 (bispecific antibody, human IgG4 S228P, kappa, Anti-BCMA arm from mAb21581, anti-CD3 arm and common light chain from mAb7221G20; also called mAb25442D; mAb25442D-A647) heavy 1: EVQLVESGGGLVQPGGSLRLSCAASGFTFSNFWMTWVRQAPGKGLEWVANMNQDGSEKYYVDSVKGRFTISRDNAKSSLYLQMNSLRAEDTAVYYCARDREYCISTSCYDDFDYWGQGTLVTVSSASTKGPSVFPLAPCSRSTSESTAALGCLVKDYFPEPVTVSWNSGALTSGVHTFPAVLQSSGLYSLSSVVTVPSSSLGTKTYTCNVDHKPSNTKVDKRVESKYGPPCPPCPAPPVAGPSVFLFPPKPKDTLMISRTPEVTCVVVDVSQEDPEVQFNWYVDGVEVHNAKTKPREEQFNSTYRVVSVLTVLHQDWLNGKEYKCKVSNKGLPSSIEKTISKAKGQPREPQVYTLPPSQEEMTKNQVSLTCLVKGFYPSDIAVEWESNGQPENNYKTTPPVLDSDGSFFLYSRLTVDKSRWQEGNVFSCSVMHEALHNHYTQKSLSLSLGK heavy 2: EVQLVESGGGLVQPGRSLRLSCAASGFTFDDYSMHWVRQAPGKGLEWVSGISWNSGSIGYADSVKGRFTISRDNAKNSLYLQMNSLRAEDTALYYCAKYGSGYGKFYYYGMDVWGQGTTVTVSSASTKGPSVFPLAPCSRSTSESTAALGCLVKDYFPEPVTVSWNSGALTSGVHTFPAVLQSSGLYSLSSVVTVPSSSLGTKTYTCNVDHKPSNTKVDKRVESKYGPPCPPCPAPPVAGPSVFLFPPKPKDTLMISRTPEVTCVVVDVSQEDPEVQFNWYVDGVEVHNAKTKPREEQFNSTYRVVSVLTVLHQDWLNGKEYKCKVSNKGLPSSIEKTISKAKGQPREPQVYTLPPSQEEMTKNQVSLTCLVKGFYPSDIAVEWESNGQPENNYKTTPPVLDSDGSFFLYSRLTVDKSRWQEGNVFSCSVMHEALHNRFTQKSLSLSPGK light: not shown",7.9 nM,4.4 nM,2.7 nM,2.6 nM,17 RU,1.38 nM,11.5 min,12.7 RU,38.8 nM,1.3 min,2.4 RU,no binding (tested: 30 nM),koff [2]: 0.00101 s⁻¹; kon [2]: 730000 M⁻¹ s⁻¹; koff [3]: 0.00864 s⁻¹; kon [3]: 223000 M⁻¹ s⁻¹; S/N (ratio of mAb25442D-A647 MFI to Isotype-A647 MFI) [5]: 2; EC50 [6]: 83 nM; S/N (ratio of mAb25442D-A647 MFI to Isotype-A647 MFI) [6]: 43; EC50 [7]: 57 nM; S/N (ratio of mAb25442D-A647 MFI to Isotype-A647 MFI) [7]: 19; EC50 [8]: 79 nM; S/N (ratio of mAb25442D-A647 MFI to Isotype-A647 MFI) [8]: 470; EC50 [9]: 27 nM; S/N (ratio of mAb25442D-A647 MFI to Isotype-A647 MFI) [9]: 9
